Measured values: patent US11833164B2, “Methods of treating Fabry disease in patients having a mutation in the GLA gene” (Amicus Therapeutics, Inc., priority 2019, dated 2023)

Test system: mutant form of α-Gal A expressed in HEK-293 cells
Assay: HEK assay (GLP HEK / Migalastat Amenability Assay): α-Gal A activity in lysates of transiently transfected HEK-293 cells incubated with or without 10 μM migalastat
Format: cell-based, human
Settings: for Absolute increase (% WT): 10 μM migalastat versus baseline; for Relative increase: 10 μM migalastat α-Gal A activity relative to baseline; for 10 μM migalastat α-Gal A activity (% WT): 5 days; for 10 μM migalastat α-Gal A activity (% WT) / Baseline α-Gal A activity (% WT): percentage of baseline wild-type α-Gal A activity; for 10 μM migalastat α-Gal A activity (% WT) / Baseline α-Gal A activity (% WT) / Baseline α-Gal A activity / 10 μM migalastat α-Gal A activity: mean ± SEM; for Baseline α-Gal A activity (% WT): absence of migalastat; for Baseline α-Gal A activity / 10 μM migalastat α-Gal A activity: lysates of HEK-293 cells transfected with the mutant form; for Baseline α-Gal A activity: incubated 5 days in the absence of migalastat; for 10 μM migalastat α-Gal A activity: incubated 5 days with 10 μM migalastat
Method in brief: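 Activity reported as 4-MU released (nmol/mg/hr), mean±SEM, from lysates of transiently transfected HEK-293 cells expressing mutant α-Gal A, cultured with or without 10 μM migalastat.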

Molecule	Absolute increase (% WT)	Relative increase	10 μM migalastat α-Gal A activity (% WT)	Baseline α-Gal A activity (% WT)	Baseline α-Gal A activity [nmol/mg/h]	10 μM migalastat α-Gal A activity [nmol/mg/h]
L129V (protein) MQLRNPELHLGCALALRFLALVSWDIPGARALDNGLARTPTMGWLHWERFMCNLDCQEEPDSCISEKLFMEMAELMVSEGWKDAGYEYLCIDDCWMAPQRDSEGRLQADPQRFPHGIRQLANYVHSKGVKLGIYADVGNKTCAGFPGSFGYYDIDAQTFADWGVDLLKFDGCYCDSLENLADGYKHMSLALNRTGRSIVYSCEWPLYMWPFQKPNYTEIRQYCNHWRNFADIDDSWKSIKSILDWTSFNQERIVDVAGPGGWNDPDMLVIGNFGLSWNQQVTQMALWAIMAAPLFMSNDLRHISPQAKALLQDKDVIAINQDPLGKQGYQLRQGDNFEVWERPLSGLAWAVAMINRQEIGGPRSYTIAVASLGKGVACNPACFITQLLPVKRKLGFYEWTSRLRSHINPTGTVLLQLENTMQMSLKDLL	16.4	1.5	48.1 ± 4.5	31.8 ± 3.3	12614 ± 1265	19488 ± 1603
L131V (protein) MQLRNPELHLGCALALRFLALVSWDIPGARALDNGLARTPTMGWLHWERFMCNLDCQEEPDSCISEKLFMEMAELMVSEGWKDAGYEYLCIDDCWMAPQRDSEGRLQADPQRFPHGIRQLANYVHSKGLKVGIYADVGNKTCAGFPGSFGYYDIDAQTFADWGVDLLKFDGCYCDSLENLADGYKHMSLALNRTGRSIVYSCEWPLYMWPFQKPNYTEIRQYCNHWRNFADIDDSWKSIKSILDWTSFNQERIVDVAGPGGWNDPDMLVIGNFGLSWNQQVTQMALWAIMAAPLFMSNDLRHISPQAKALLQDKDVIAINQDPLGKQGYQLRQGDNFEVWERPLSGLAWAVAMINRQEIGGPRSYTIAVASLGKGVACNPACFITQLLPVKRKLGFYEWTSRLRSHINPTGTVLLQLENTMQMSLKDLL	12.7	1.3	53.2 ± 5.3	40.5 ± 2.8	18644 ± 1664	24913 ± 3151
I133L (protein) MQLRNPELHLGCALALRFLALVSWDIPGARALDNGLARTPTMGWLHWERFMCNLDCQEEPDSCISEKLFMEMAELMVSEGWKDAGYEYLCIDDCWMAPQRDSEGRLQADPQRFPHGIRQLANYVHSKGLKLGLYADVGNKTCAGFPGSFGYYDIDAQTFADWGVDLLKFDGCYCDSLENLADGYKHMSLALNRTGRSIVYSCEWPLYMWPFQKPNYTEIRQYCNHWRNFADIDDSWKSIKSILDWTSFNQERIVDVAGPGGWNDPDMLVIGNFGLSWNQQVTQMALWAIMAAPLFMSNDLRHISPQAKALLQDKDVIAINQDPLGKQGYQLRQGDNFEVWERPLSGLAWAVAMINRQEIGGPRSYTIAVASLGKGVACNPACFITQLLPVKRKLGFYEWTSRLRSHINPTGTVLLQLENTMQMSLKDLL	17.5	1.3	78.2 ± 3.1	60.7 ± 2.7	24431 ± 1181	31550 ± 1420
A135E (protein) MQLRNPELHLGCALALRFLALVSWDIPGARALDNGLARTPTMGWLHWERFMCNLDCQEEPDSCISEKLFMEMAELMVSEGWKDAGYEYLCIDDCWMAPQRDSEGRLQADPQRFPHGIRQLANYVHSKGLKLGIYEDVGNKTCAGFPGSFGYYDIDAQTFADWGVDLLKFDGCYCDSLENLADGYKHMSLALNRTGRSIVYSCEWPLYMWPFQKPNYTEIRQYCNHWRNFADIDDSWKSIKSILDWTSFNQERIVDVAGPGGWNDPDMLVIGNFGLSWNQQVTQMALWAIMAAPLFMSNDLRHISPQAKALLQDKDVIAINQDPLGKQGYQLRQGDNFEVWERPLSGLAWAVAMINRQEIGGPRSYTIAVASLGKGVACNPACFITQLLPVKRKLGFYEWTSRLRSHINPTGTVLLQLENTMQMSLKDLL	7.4	1.3	32.5 ± 1.6	25.1 ± 1.5	10143 ± 752	12954 ± 678
K130M (protein) MQLRNPELHLGCALALRFLALVSWDIPGARALDNGLARTPTMGWLHWERFMCNLDCQEEPDSCISEKLFMEMAELMVSEGWKDAGYEYLCIDDCWMAPQRDSEGRLQADPQRFPHGIRQLANYVHSKGLMLGIYADVGNKTCAGFPGSFGYYDIDAQTFADWGVDLLKFDGCYCDSLENLADGYKHMSLALNRTGRSIVYSCEWPLYMWPFQKPNYTEIRQYCNHWRNFADIDDSWKSIKSILDWTSFNQERIVDVAGPGGWNDPDMLVIGNFGLSWNQQVTQMALWAIMAAPLFMSNDLRHISPQAKALLQDKDVIAINQDPLGKQGYQLRQGDNFEVWERPLSGLAWAVAMINRQEIGGPRSYTIAVASLGKGVACNPACFITQLLPVKRKLGFYEWTSRLRSHINPTGTVLLQLENTMQMSLKDLL	10.9	1.3	41.4 ± 2.6	30.5 ± 2.1	12335 ± 890	16496 ± 921
K130Q (protein) MQLRNPELHLGCALALRFLALVSWDIPGARALDNGLARTPTMGWLHWERFMCNLDCQEEPDSCISEKLFMEMAELMVSEGWKDAGYEYLCIDDCWMAPQRDSEGRLQADPQRFPHGIRQLANYVHSKGLQLGIYADVGNKTCAGFPGSFGYYDIDAQTFADWGVDLLKFDGCYCDSLENLADGYKHMSLALNRTGRSIVYSCEWPLYMWPFQKPNYTEIRQYCNHWRNFADIDDSWKSIKSILDWTSFNQERIVDVAGPGGWNDPDMLVIGNFGLSWNQQVTQMALWAIMAAPLFMSNDLRHISPQAKALLQDKDVIAINQDPLGKQGYQLRQGDNFEVWERPLSGLAWAVAMINRQEIGGPRSYTIAVASLGKGVACNPACFITQLLPVKRKLGFYEWTSRLRSHINPTGTVLLQLENTMQMSLKDLL	12.0	1.4	47.8 ± 3.1	35.8 ± 2.6	11880 ± 450	16001 ± 701
K130N (protein) MQLRNPELHLGCALALRFLALVSWDIPGARALDNGLARTPTMGWLHWERFMCNLDCQEEPDSCISEKLFMEMAELMVSEGWKDAGYEYLCIDDCWMAPQRDSEGRLQADPQRFPHGIRQLANYVHSKGLNLGIYADVGNKTCAGFPGSFGYYDIDAQTFADWGVDLLKFDGCYCDSLENLADGYKHMSLALNRTGRSIVYSCEWPLYMWPFQKPNYTEIRQYCNHWRNFADIDDSWKSIKSILDWTSFNQERIVDVAGPGGWNDPDMLVIGNFGLSWNQQVTQMALWAIMAAPLFMSNDLRHISPQAKALLQDKDVIAINQDPLGKQGYQLRQGDNFEVWERPLSGLAWAVAMINRQEIGGPRSYTIAVASLGKGVACNPACFITQLLPVKRKLGFYEWTSRLRSHINPTGTVLLQLENTMQMSLKDLL	10.1	1.5	31.5 ± 3	21.5 ± 1.9	8597 ± 678	12595 ± 989
I133V (protein) MQLRNPELHLGCALALRFLALVSWDIPGARALDNGLARTPTMGWLHWERFMCNLDCQEEPDSCISEKLFMEMAELMVSEGWKDAGYEYLCIDDCWMAPQRDSEGRLQADPQRFPHGIRQLANYVHSKGLKLGVYADVGNKTCAGFPGSFGYYDIDAQTFADWGVDLLKFDGCYCDSLENLADGYKHMSLALNRTGRSIVYSCEWPLYMWPFQKPNYTEIRQYCNHWRNFADIDDSWKSIKSILDWTSFNQERIVDVAGPGGWNDPDMLVIGNFGLSWNQQVTQMALWAIMAAPLFMSNDLRHISPQAKALLQDKDVIAINQDPLGKQGYQLRQGDNFEVWERPLSGLAWAVAMINRQEIGGPRSYTIAVASLGKGVACNPACFITQLLPVKRKLGFYEWTSRLRSHINPTGTVLLQLENTMQMSLKDLL	21.9	1.2	118.1 ± 5.1	96.2 ± 3.7	38738 ± 1624	47299 ± 1885
I133T (protein) MQLRNPELHLGCALALRFLALVSWDIPGARALDNGLARTPTMGWLHWERFMCNLDCQEEPDSCISEKLFMEMAELMVSEGWKDAGYEYLCIDDCWMAPQRDSEGRLQADPQRFPHGIRQLANYVHSKGLKLGTYADVGNKTCAGFPGSFGYYDIDAQTFADWGVDLLKFDGCYCDSLENLADGYKHMSLALNRTGRSIVYSCEWPLYMWPFQKPNYTEIRQYCNHWRNFADIDDSWKSIKSILDWTSFNQERIVDVAGPGGWNDPDMLVIGNFGLSWNQQVTQMALWAIMAAPLFMSNDLRHISPQAKALLQDKDVIAINQDPLGKQGYQLRQGDNFEVWERPLSGLAWAVAMINRQEIGGPRSYTIAVASLGKGVACNPACFITQLLPVKRKLGFYEWTSRLRSHINPTGTVLLQLENTMQMSLKDLL	15.0	2.4	25.8 ± 1.1	10.8 ± 1	4362 ± 397	10255 ± 335
